Test results published in patent US20260092093A1 (TJ BIOPHARMA SHANGHAI, published 2026).

Assays:
Test in all cases: cell-based or functional assay
hIL-18BP-hFc [1] = biological target: T1, hIL-18BP-hFc (human, UniProt O95998 31-194, limits assumed)
T1 sequence (looked up): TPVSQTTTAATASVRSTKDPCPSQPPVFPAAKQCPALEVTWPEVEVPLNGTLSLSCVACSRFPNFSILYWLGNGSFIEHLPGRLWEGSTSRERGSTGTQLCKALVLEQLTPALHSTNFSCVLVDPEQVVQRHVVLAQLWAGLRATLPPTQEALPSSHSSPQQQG

[2] = biological target: T2, hIL-18 receptor (hIL-18Rα and hIL-18Rβ) (human, UniProt Q13478 19-541; O95256 20-599)
T2 sequence (looked up) 1: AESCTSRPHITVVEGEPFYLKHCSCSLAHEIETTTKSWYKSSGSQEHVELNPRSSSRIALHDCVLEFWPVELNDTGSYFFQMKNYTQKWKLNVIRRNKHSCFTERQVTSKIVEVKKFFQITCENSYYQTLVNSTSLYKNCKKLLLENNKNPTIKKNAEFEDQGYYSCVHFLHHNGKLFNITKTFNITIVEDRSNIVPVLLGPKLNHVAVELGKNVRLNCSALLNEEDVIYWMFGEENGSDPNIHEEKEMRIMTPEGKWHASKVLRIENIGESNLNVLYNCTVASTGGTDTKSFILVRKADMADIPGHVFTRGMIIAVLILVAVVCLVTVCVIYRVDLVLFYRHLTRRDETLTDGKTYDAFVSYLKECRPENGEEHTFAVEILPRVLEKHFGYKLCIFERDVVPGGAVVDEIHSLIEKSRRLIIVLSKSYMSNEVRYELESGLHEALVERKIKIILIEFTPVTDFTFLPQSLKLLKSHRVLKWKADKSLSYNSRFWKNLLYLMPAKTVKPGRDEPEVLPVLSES
T2 sequence (looked up) 2: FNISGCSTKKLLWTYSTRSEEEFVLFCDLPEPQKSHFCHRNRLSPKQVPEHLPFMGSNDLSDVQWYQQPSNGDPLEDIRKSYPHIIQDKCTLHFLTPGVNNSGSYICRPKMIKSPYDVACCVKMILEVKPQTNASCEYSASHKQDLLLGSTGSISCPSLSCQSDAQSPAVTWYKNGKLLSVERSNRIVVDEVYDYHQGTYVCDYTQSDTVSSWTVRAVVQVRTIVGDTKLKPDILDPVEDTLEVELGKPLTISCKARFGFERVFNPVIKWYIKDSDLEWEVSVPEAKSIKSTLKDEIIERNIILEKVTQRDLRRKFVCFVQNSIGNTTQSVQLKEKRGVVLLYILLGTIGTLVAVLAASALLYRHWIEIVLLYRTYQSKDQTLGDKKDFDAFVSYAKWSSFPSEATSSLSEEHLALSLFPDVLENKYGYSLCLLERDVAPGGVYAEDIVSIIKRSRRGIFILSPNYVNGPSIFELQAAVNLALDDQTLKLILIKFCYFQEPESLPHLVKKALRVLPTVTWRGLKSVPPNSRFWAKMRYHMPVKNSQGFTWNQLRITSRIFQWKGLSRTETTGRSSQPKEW

hIL-18BP-hFc [3] = biological target: T1, hIL-18BP-hFc; remark: listed apart in the source
[4] = biological target: T2, hIL-18 receptor (hIL-18Rα and hIL-18Rβ); remark: listed apart in the source

B1: IL-18 variant polypeptide M17 (ligand)
chain: YFPKLRSKLSVIRNLNDQVLFIDQGNRPLFEDMTDSDCRDNAPRTIFIISMYKLSTARGMAVTISVKCEKISTLSCENKIISFKEMNPPDGIKDTKSDIIFFQRSVPGHDNKMQFESSSYEGYFLACEKERDLFKLILKKEDELGDRSIMFTVQNED
- EC50 (nM) in the Presence of 1 µg/mL hIL-18BP-hFc, hIL-18 reporter assay (hIL-18BP-hFc [1]): 0.32 nM
- EC50 Fold Change (+BP/-BP), hIL-18 reporter assay (hIL-18BP-hFc [1]): 0.78 fold
- EC50 (nM), hIL-18 reporter assay [2]: 0.41 nM
- EC50 (nM) in the Presence of 1 µg/mL hIL-18BP-hFc, PBMC assay (hIFNγ release) (hIL-18BP-hFc [3]): 0.13 nM
- EC50 Fold Change (+BP/-BP), PBMC assay (hIFNγ release) (hIL-18BP-hFc [3]): 1 fold
- EC50 (nM), PBMC assay (hIFNγ release) [4]: 0.13 nM

B2: IL-18 variant polypeptide M24 (ligand)
chain: YFPKLRSKLSVIRNLNDQVLFIDQGNRPLFEDMTDSDCRDNAPRTIFIISMYKYSTSRGMAVTISVKCEKISTLSCENKIISFKEMNPPDNIKDTKSDIIFFQRSVPGHDNKMQFESSSYEGYFLACEKERDLFKLILKKEDELGDRSIMFTVQNED
- EC50 (nM) in the Presence of 1 µg/mL hIL-18BP-hFc, hIL-18 reporter assay (hIL-18BP-hFc [1]): 1.99 nM
- EC50 Fold Change (+BP/-BP), hIL-18 reporter assay (hIL-18BP-hFc [1]): 2.01 fold
- EC50 (nM), hIL-18 reporter assay [2]: 0.99 nM
- EC50 (nM) in the Presence of 1 µg/mL hIL-18BP-hFc, PBMC assay (hIFNγ release) (hIL-18BP-hFc [3]): 0.08 nM
- EC50 Fold Change (+BP/-BP), PBMC assay (hIFNγ release) (hIL-18BP-hFc [3]): 1.48 fold
- EC50 (nM), PBMC assay (hIFNγ release) [4]: 0.054 nM

B3: IL-18 variant polypeptide M21 (ligand)
chain: YFPKLRSKLSVIRNLNDQVLFIDQGNRPLFEDMTDSDCRDNAPRTIFIISMYKSSSTRGMAVTISVKCEKISTLSCENKIISFKEMNPPDGIKDTKSDIIFFQSSVPGHDNKMQFESSSYEGYFLACEKERDLFKLILKKEDELGDRSIMFTVQNED
- EC50 (nM) in the Presence of 1 µg/mL hIL-18BP-hFc, hIL-18 reporter assay (hIL-18BP-hFc [1]): 2.1 nM
- EC50 Fold Change (+BP/-BP), hIL-18 reporter assay (hIL-18BP-hFc [1]): 1.11 fold
- EC50 (nM), hIL-18 reporter assay [2]: 1.9 nM
- EC50 (nM) in the Presence of 1 µg/mL hIL-18BP-hFc, PBMC assay (hIFNγ release) (hIL-18BP-hFc [3]): 0.049 nM
- EC50 Fold Change (+BP/-BP), PBMC assay (hIFNγ release) (hIL-18BP-hFc [3]): 1.09 fold
- EC50 (nM), PBMC assay (hIFNγ release) [4]: 0.045 nM
